Reference: PMC8234171

Assays:
[1] = target: human mitochondrial complex I (NADH-coenzyme Q oxidoreductase) (human (endogenous in T-REx-293 shRNA-C3)); assay: native gel or EMSA; high-resolution clear native gel electrophoresis (HrCNE, 6.5% gel, 4 °C) of DDM-solubilised mitochondria of shRNA-C3 cells treated with 0.03 mg/mL TAT-NDUFS8 for 0-48 h; immunoblot with anti-NDUFS8 at the complex I location; intensity normalised to complex V (ATPase α subunit)
[2] = target: human mitochondrial complex I (NADH-coenzyme Q oxidoreductase) (human (endogenous in T-REx-293 shRNA-C3))

Substance: TAT-NDUFS8 fusion protein (from UniProt O00217 35-210)
- intensity of NDUFS8 at the complex I location after 48 h of treatment [1]: 105%
- complex I in-gel activity (NADH/NBT staining after HrCNE) of shRNA-C3 cells treated with 0.03 mg/mL TAT-NDUFS8 for 48 h; untreated shRNA-C3 cells about 83.6% of the wild type (% of the wild-type activity) [2]: 109
